Laboratory results as given in publication PMC10397247.

Experiments:
Test in all cases: two-hybrid library CCNG1;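 also: natural log of median RNA to DNA barcode read ratio; higher means stronger binding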
4H2588-bH = molecular target: T1, 4H2588-bH
T1 chain: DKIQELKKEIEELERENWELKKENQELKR

4H2717-bH = molecular target: T2, 4H2717-bH
T2 chain: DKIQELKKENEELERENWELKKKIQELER

4H741-bH = molecular target: T3, 4H741-bH
T3 chain: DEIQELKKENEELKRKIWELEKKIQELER

4H319-bH = molecular target: T4, 4H319-bH
T4 chain: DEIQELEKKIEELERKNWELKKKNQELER

4H2473-bH = molecular target: T5, 4H2473-bH
T5 chain: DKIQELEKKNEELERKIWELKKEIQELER

4H3057-bH = molecular target: T6, 4H3057-bH
T6 chain: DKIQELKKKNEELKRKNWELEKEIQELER

4H492-bH = molecular target: T7, 4H492-bH
T7 chain: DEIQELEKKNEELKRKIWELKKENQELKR

4H2915-bH = molecular target: T8, 4H2915-bH
T8 chain: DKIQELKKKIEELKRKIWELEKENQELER

4H477-bH = molecular target: T9, 4H477-bH
T9 chain: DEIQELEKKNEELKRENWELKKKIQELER

4H348-bH = molecular target: T10, 4H348-bH
T10 chain: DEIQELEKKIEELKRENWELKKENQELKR

4H2503-bH = molecular target: T11, 4H2503-bH
T11 chain: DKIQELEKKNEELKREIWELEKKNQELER

4H3277-bH = molecular target: T12, 4H3277-bH
T12 chain: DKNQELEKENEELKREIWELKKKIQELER

4H619-bH = molecular target: T13, 4H619-bH
T13 chain: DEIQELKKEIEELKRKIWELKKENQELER

4H40-bH = molecular target: T14, 4H40-bH
T14 chain: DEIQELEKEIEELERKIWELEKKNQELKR

4H2839-bH = molecular target: T15, 4H2839-bH
T15 chain: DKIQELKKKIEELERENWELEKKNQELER

4H2692-bH = molecular target: T16, 4H2692-bH
T16 chain: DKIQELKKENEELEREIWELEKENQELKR

B1: 4H2473-bH (peptide)
chain: DKIQELEKKNEELERKIWELKKEIQELER
interaction score (4H2588-bH): -0.165 | interaction score (4H2717-bH): -0.241 | interaction score (4H741-bH): -0.491 | interaction score (4H319-bH): -1.01 | interaction score (4H2473-bH): 1.05 | interaction score (4H3057-bH): 0.309 | interaction score (4H492-bH): 0.0302 | interaction score (4H2915-bH): 0.134 | interaction score (4H477-bH): -1.42 | interaction score (4H348-bH): -0.545 | interaction score (4H2503-bH): 0.0804 | interaction score (4H3277-bH): -0.651 | interaction score (4H619-bH): -2.35 | interaction score (4H40-bH): -0.286 | interaction score (4H2839-bH): -0.0772 | interaction score (4H2692-bH): 0.549
